Laboratory results as given in the DeepSol protein solubility set.

Assay: soluble on expression in E. coli; label from the status in PepcDB or PDB records

Sequence | soluble on expression in E. coli
MVTLCHVFGVHRSSYRYWKNRPEKPDGRRAVLRSQVLELHGISHGSAGARSIATMATRRGYQMGRWLAGRLMKELGLVSCQQPTHRYKRGGHEHVAIPNYLERQFAVTEPNQVWCGDVTYIWTGKRWAYLAVVLDLFARKPVGWAMSFSPDSRLTMKALEMAWETRGKPGGVMFHSDQGSHYTSRQFRQLLWRYQIRQSMSRRGNCWDNSPMERFFRSLKNEWMPVVGYVSFSKAAHAITDYIVGYYSALRPHEYNGGLPPNESENRYWKNSNSVASFC | not soluble
MSTAFNNIRQGLSEAIAHAKGNVHGVRVHRPRQVDVKAVRAKVGMTQEQFAAQFGFSPATLRHWERGDRTPRGAALVLLNVIDRNPQAVIEALA | not soluble
MGSDKIHHHHHHMSIRIGNAPCSWGVEFADDPRNPTWRSVLKDCAEAGYKGIELGPVGFMPEDPVELGEALAEHDLDLIGGVVFRAYHDPAAWEDVVDATHRTARALRAHGAQHLVLIDSISPRRAPTAGRAAEAEQMDKAEWTAYRNRIAESARIGAEEYGLTVGIHAHAAGFMDFEPELERLLSEVDESLLKICFDTGHHSYAGFDPVAFMKRHVGRISYMHFKDIDPKVKAEVIANRTGFYEACGQGIFCNLGLGDVDFPAVRQVLLEAGFAGWCTVEQDCDPTLDPDPVGDALKNREYLETIGFN | not soluble
MTRMKYLVAAATLSLFLAGCSGSKEEVPDNPPNEIYATAQQKLQDGNWKQAITQLEALDNRYPFGPYSQQVQLDLIYAYYKNADLPLAQAAIDRFMRLNPTHPNIDYVMYMRGLTNMALDDSALQGFFGVDRSDRDPQHARAAFNDFSKLVRSYPNSQYTTDATKRLVFLKDRLAKYEYSVAEYYTARGAWVAVVNRVEGMLRNYPDTQATRDALPLMENAYRQMQLNAQADKVAKIIAANSKNT | not soluble
MGSDKIHHHHHHMRVLVKLSGEALSGEGGRGFDPERVNYIVNEIKSAIEEGFKIGIVVGAGNLFRGVELKNLTMTRADQIGLLGTVMNSVYLKDIFERSGLKARIYSQIVNLPDVERVNYDSIESALRENSILIFAGGTSNPFFTTDTAAVLRAQEMRAKLVVKATKVDGVYDKDPKKFPDAKKIPHLTFSEAMKMGLKVMDAEAFALCKKLGITVKVINFFEPGTLLKALKGEDVGSTVVPD | not soluble
MSTKADMAIAFHDKGYNCAQAVACSFCQEFGVAEEEMFRIAEGFGLGMGMMEVCGALSGMMMIIGLENSVGEPEKGRLTKGDTYRKVKEYVKKFQEQNGSYLCRELKGVETGKVLRSCPDCIRDAVALTEEYLAAQKQN | not soluble
MAHHHHHHMSTMDVPGTAIEQYFNQLIQMRLLTQVIVSDTRGDTTVACLMGLEHGGDAVVSSSEDTYGVAESIMESNVALSGARCFQNLDQLNLGVPLYVSFQYHDDVVVQTLDGCCMLTLIGSRSQGHFVGGLLTLLDQIRSCEAYQELLTQTQLCFR | not soluble
MRPGGYPKGVQARAWVEVDLAALWANYRLLAGRAGGEVIPVLKADAYGHGALPLARFLEGKGVGRFAVATLEEGRRLREGGIKGEVLLLGSLHPLEAEEALRLGLVPTLSNLEAAEALSQRARALGLVPRAHLKVDTGMNRVGFPSEEAVSALRAVEALGVRVEGVYTHLATAGEDAAFVETQRRRFQEVRRALGEGYFYHLENSLGLLRHGATAGVRVGLALYGLVPGFGLRPILRILARPTLVKRLKAGDRVGYGGVYVARGGEWLATLPVGYADGLPWGAVRFVKGPDGRLLEVAGRISMDQTTVLLPGPVGLEAVFEVLSADFGPTGLLAWAEARGTLPYEVAVHLSRRLPRRYLE | soluble
MSLKARRGLSASDLINLNADRLQCLLSGHPKFVFNKGRRGWGKEALERYAPEYANTFRLHWLAVKREHMIWRCDNEMDIHQLLTAAMDPQEFARFSQVWQENGLDHNWLPLPVHPWQWQEKIATDFIADFGEGRMVSLGEFGDQWLAQQSLRTLTNASRRGGLDIKLPLTIYNTSCYRGIPGRYIAAGPLASRWLQQVFATDATLVQSGAVILGEPAAGYVSHEGYAALARAPYRYQEMLGVIWRENPCRWLKPDESPFLMATLMEWDENNQPLAGAYIDRSGLDAETWLTQLFRVVVVPLYHLLCRYGVALIAHGQNITLAMKEGVPQRVLLKDFQGDMRLVKEEFPEMDSLPQEVRDVTSRLSADYLIHDLQTGHFVTVLRFISPLMVRLGVPERRFYQLLAAVLSDYMKKHPQMSERFALFSLFRPQIIRVVLNPVKLTWPDLDGGSRMLPNYLEDLQNPLWLVTQEYESEGHHHHHH | soluble
MGSDKIHHHHHHMRTALLEVGLEELPASEFHSILKQLEEKSAELLKAYRVSSGSVEVFVGSRRFGVILKNLPERQEDFTEEKKGPPLNVAYDENGKPTRALEGFLRNNNASLENVVHREGYVYLSRVVEGKPVEEVLPDLFRDLVLGLNFRKPMRWGSGEHEYIRPVHWIVAMVDGRVLDLEIFGLRSSRISYGKRYHAGSIEIPDSERYYESLKKGFVISSHLERKKFVLEQIDEFEKRSSMKIERDEELIEEIVAITEYPRIVVGQFDRKYLELPEEIIVTAVKHHQRSFIAHKGTLTNTFVAFQDGPQPPENVVKGYERVINARLEDARYYFQKDLETPLEKMNEKLKEIVFQEKLGTLYDKVERIKKISQRLCEDLKLPGSFTQKVLEAASICKADIASKVVYEFPELQGVMGRIYALREGINEEIATAIEDHYSEEPQTVIGSILGIADRIDTIVGNFAIGNVPTSSKDPYGLKSKADTIFRIIRKNEWDISLEELLTFASSLVGYRLSEELETFFAGRFYQFLINELGISFDVARAVNHLWKKPLRGILSAEALQEISEKPEFQDLFVGFERVHNITKNHDSTKFDGALFEKEEEKKLMNKFYEVKEKVLKALERLNYREALQYLIELKPYIDEYFDNVFVMVKRDDLRVNRLSFLKNIDELFMMVGDMTYLVKRSQV | not soluble
MAHHHHHHMLTIRVGNLPVCLCSNLRNTFNPTYAFGVKRNDGTVALLDGKSGHLLLPFDAEGNIIVTPGADYQLVFLSNDSTSSTVHTTQGLGKGGTNKTSHDFELTKALAKDGSIHREKRRLDDGRATSRERFHKGNAHYSVSDSKPTKRRKRDHSVDKDAVVEAEFGSQSINKKERSVKASRKDSNREDSDDPDDIPIFCTLAGKPTPAPISSNHTPTVSPAPKEVYLVDNFDPTTRPAHSEEGALDSSATELISS | soluble
MGHHHHHHGSRKGAELGILIKNADALEVAEKVTAVIFDKTGTLTKGKPEVTDLVPLNGDERELLRLAAIAERRSEHPIAEAIVKKALEHGIELGEPEKVEVIAGEGVVADGILVGNKRLMEDFGVAVSNEVELALEKLEREAKTAVIVARNGRVEGIIAVSDTLKESAKPAVQELKRMGIKVGMITGDNWRSAEAISRELNLDLVIAEVLPHQKSEEVKKLQAKEVVAFVGDGINDAPALAQADLGIAVGSGSDVAVESGDIVLIRDDLRDVVAAIQLSRKTMSKIK | soluble
GMKTIIRQPQLYRFLKYCNESNLDKTVLDCGAGGDLPPLSIFVEDGYKTYGIEISDLQLKKAENFSRENNFKLNISKGDIRKLPFKDESMSFVYSYGTIFHMRKNDVKEAIDEIKRVLKPGGLACINFLTTKDERYNKGEKIGEGEFLQLERGEKVIHSYVSLEEADKYFKDMKVLFKEDRVVERINDGLKIKQGYVDYIAEKFSKSIL | soluble
MENLKNYFDVVIIGAGPAGLFAAYELSKYDNLKTVVIDRGKDVLERHCAAEKLKKCIKCNPCQIMYGVGGAGGLSDGTLNLRPDIGGNLAEITNNENYAWQLIFEVDKIFLEHGGPKKLFKGSFEKIKGLQRRSAQNGVRFIPIIQRHIGSDHTKQLINNIKTTLQNRGVEFLLNTEVFKFEKNKVFVNISGKKEEINAKYIIVAPGRGNAEWFLKISEKIGLISNHGPIDVGVRVEVPSIIMESITEINHDPKFHIYTDTYDDFVRTFCTNPYGFVVEENYGDIIGVNGHSMVDKKSENTNFSFLTRIELTEPVENTTSYGKSIAKLTTTLGGGKPILQRLGDLKRGRRSTWDRLKKSSFDPTLKQVTPGDIAMALPHRIVTNIIEGLEKLDKVIPGVSNDHTLLYAPEIKYYAMKTKVNDDLETSILNIFAAGDGAGLSRDITNSCATGMLAARGILKKEGITDIFKDENTNWQEKVESMKLEHHHHHH | soluble
MSLEMKTYIIEKLRETEAIYYIEILLAVESGSRAWGFASPDSDYDIRFIYRHSKDWYLTPWDKDETITFMTEDDLDGSGWDLNKTFHLLLKSNAALLSWFYSPIVYIENKSFTKLFKPLVDQCFSPIAVSFHYLSMSKKYLESCRNDEVKLKSYFYCLRTALSGKWITEKKTVPPVLFSDLLVLADSTIRTKIENLIALKATKGESYFHPNDWELFEFMERQISENEEKAKSLSGSKTDKAQMEKVFREIISEGHHHHHH | not soluble
MKIGIGSDHGGYNLKREIADFLKKRGYEVIDFGTHGNESVDYPDFGLKVAEAVKSGECDRGIVICGTGLGISIAANKVPGIRAAVCTNSYMARMSREHNDANILALGERVVGLDLALDIVDTWLKAEFQGGRHATRVGKIGEIEKKYSK | soluble
MGSSHHHHHHSSGLVPRGSHMASMAKMRAVDAAMYVLEKEGITTAFGVPGAAINPFYSAMRKHGGIRHILARHVEGASHMAEGYTRATAGNIGVCLGTSGPAGTDMITALYSASADSIPILCITGQAPRARLHKEDFQAVDIEAIAKPVSKMAVTVREAALVPRVLQQAFHLMRSGRPGPVLVDLPFDVQVAEIEFDPDMYEPLPVYKPAASRMQIEKAVEMLIQAERPVIVAGGGVINADAAALLQQFAELTSVPVIPTLMGWGCIPDDHELMAGMVGLQTAHRYGNATLLASDMVFGIGNRFANRHTGSVEKYTEGRKIVHIDIEPTQIGRVLCPDLGIVSDAKAALTLLVEVAQEMQKAGRLPCRKEWVADCQQRKRTLLRKTHFDNVPVKPQRVYEEMNKAFGRDVCYVTTIGLSQIAAAQMLHVFKDRHWINCGQAGPLGWTIPAALGVCAADPKRNVVAISGDFDFQFLIEELAVGAQFNIPYIHVLVNNAYLGLIRQSQRAFDMDYCVQLAFENINSSEVNGYGVDHVKVAEGLGCKAIRVFKPEDIAPAFEQAKALMAQYRVPVVVEVILERVTNISMGSELDNVMEFEDIADNAADAPTETCFMHYE | soluble
MSLAIQPLAYRMRPKALDEIVGQTHLVGKDKIIYRMVKAKQLSSMILYGPPGIGKTSIASAIAGSTKYAFRTLNAVTNNKKDMEVVAAEAKMSGTVILLLDEVHRLDKAKQDFLLPLLESGAIILIGATTSNPYIAINPAIRSRTQIFELKPLTVEDIMITMDRALSDKERGLGNYDVEIDEVAKKHFATASNGDVRSALNALELAVISSEPNEDGVIHITLDVAEECLQKKSLAHDKDGDAHYDVLSAFQKSVRGSDVNAALHYMGRLIEAGDLVSISRRMLVMAYEDIGLASPQAGAHTLAAIQTAEKVGFPEARIPLANAVIELCLSPKSNSAIMAIDAALADIRQGKSGEVPDHLRDGHYSGAEKLGRAIDYKYPHNYDNAWVDQQYLPDRLKNKLYYAPKFTSKFEQTIAGVYQKINENKAKKEGHHHHHH | soluble
MSLSTEPLASRMRPKNIDEIISQQHLVGPKGIIRRMVDTKRLSSMIFYGPPGIGKTSIAKAISGSTQFKFRQLNAVTNTKKDMQLIVEEAKMSGQVILLLDEIHRLDKAKQDFLLPHLENGKIVLIGATTSNPYHAINPAIRSRAQIFELYPLDQDDIRLALDRAINDKERGLSTYHPIVDEDAIEYFSTQSQGDVRSALNALELAVLSAHIGEENERHITLDDAKDCLQKGAFVSDKDGDMHYDVMSAFQKSIRGSDVNAALHYLARLIEAGDLPTIVRRLLVISYEDVGLASPNAGQRTLAAIQSAERLGFPEARIPLSQAVIELCLSPKSNSGITAIDKALGDIRNGHIGQIPDYLKDGHYSGAKKLGRAIGYKYPHNYENGHVVQQYLPEKLKNRVYYEPKTTSKSEQQFKTIYDNLRNKEGHHHHHH | not soluble
